Reference: PMC12102759 (2025)

B1: MXI1 peptide 6-21 (Max-interacting protein 1), 16-mer library wild type / SIN3A PAH2 (SIN3A PAH domain, residues 295-383) (parent complex)
chain 1: MINVQRLLEAAEFLER
chain 2: SLQNNQPVEFNHAINYVNKIKNRFQGQPDIYKAFLEILHTYQKEQRNAKEAGGNYTPALTEQEVYAQVARLFKNQEDLLSEFGQFLPDA
B2: RNF115 peptide 69-84 (E3 ubiquitin-protein ligase RNF115), 16-mer library wild type / MDM2 SWIB (MDM2 SWIB/MDM2 domain, residues 17-125) (parent complex)
chain 1: THFAELWGHLDHTMFF
chain 2: SQIPASEQETLVRPKPLLLKLLKSVGAQKDTYTMKEVLFYLGQYIMTKRLYDEKQQHIVYCSNDLLGDLFGVPSFSVKEHRKIYTMIYRNLVVVNQQESSDSGTSVSEN

Variants of: B1
Assay: proteomic peptide phage display deep mutational scan (ProP-PD DMS): M13 P8 16-mer library selected against immobilised GST-tagged bait for four days (rounds), NGS of the eluted pools per day and pseudo-replica; bait immobilised on MaxiSorp plates (10 µg), library pre-cleared on GST, 2 h binding at 4 °C, five washes; one round per day, days 1-4; value from days 2 and 3

Going from chain 1 F13T to chain 1 F13S, the screen value falls from 0.00119 average fractional NGS count over selection days 2 and 3 (reads of this peptide / all reads for the bait, averaged over … to 0.000565 average fractional NGS count over selection days 2 and 3 (reads of this peptide / all reads for the bait, averaged over ….

Going from chain 1 F13W to chain 1 F13K, the screen value rises from 0.00114 average fractional NGS count over selection days 2 and 3 (reads of this peptide / all reads for the bait, averaged over … to 0.00119 average fractional NGS count over selection days 2 and 3 (reads of this peptide / all reads for the bait, averaged over ….

Going from chain 1 F13Y to chain 1 F13G, the screen value falls from 0.00195 average fractional NGS count over selection days 2 and 3 (reads of this peptide / all reads for the bait, averaged over … to 0.00169 average fractional NGS count over selection days 2 and 3 (reads of this peptide / all reads for the bait, averaged over ….

Compared with chain 1 F13A, chain 1 F13D is higher in screen value: 0.000255 average fractional NGS count over selection days 2 and 3 (reads of this peptide / all reads for the bait, averaged over … for the first, 0.00238 average fractional NGS count over selection days 2 and 3 (reads of this peptide / all reads for the bait, averaged over … for the second.

Compared with chain 1 F13V, chain 1 F13L is higher in screen value: 0.000201 average fractional NGS count over selection days 2 and 3 (reads of this peptide / all reads for the bait, averaged over … for the first, 0.00028 average fractional NGS count over selection days 2 and 3 (reads of this peptide / all reads for the bait, averaged over … for the second.

Compared with chain 1 F13E, chain 1 F13N is higher in screen value: 0.000282 average fractional NGS count over selection days 2 and 3 (reads of this peptide / all reads for the bait, averaged over … for the first, 0.00134 average fractional NGS count over selection days 2 and 3 (reads of this peptide / all reads for the bait, averaged over … for the second.

First: chain 1 R6H
Second: chain 1 R6A
The screen value of the first is lower: 0.00034 average fractional NGS count over selection days 2 and 3 (reads of this peptide / all reads for the bait, averaged over … for the first, 0.00198 average fractional NGS count over selection days 2 and 3 (reads of this peptide / all reads for the bait, averaged over … for the second.

Compared with chain 1 R6W, chain 1 R6S is lower in screen value: 0.0159 average fractional NGS count over selection days 2 and 3 (reads of this peptide / all reads for the bait, averaged over … for the first, 0.00011 average fractional NGS count over selection days 2 and 3 (reads of this peptide / all reads for the bait, averaged over … for the second.

First: chain 1 R6G
Second: chain 1 R6Y
The screen value of the first is lower: 0.000834 average fractional NGS count over selection days 2 and 3 (reads of this peptide / all reads for the bait, averaged over … for the first, 0.00232 average fractional NGS count over selection days 2 and 3 (reads of this peptide / all reads for the bait, averaged over … for the second.

Compared with chain 1 R6V, chain 1 M1Y is higher in screen value: 0.000218 average fractional NGS count over selection days 2 and 3 (reads of this peptide / all reads for the bait, averaged over … for the first, 0.000304 average fractional NGS count over selection days 2 and 3 (reads of this peptide / all reads for the bait, averaged over … for the second.

Compared with chain 1 M1V, chain 1 M1W is higher in screen value: 0.000344 average fractional NGS count over selection days 2 and 3 (reads of this peptide / all reads for the bait, averaged over … for the first, 0.00153 average fractional NGS count over selection days 2 and 3 (reads of this peptide / all reads for the bait, averaged over … for the second.

First: chain 1 M1F
Second: chain 1 M1I
The screen value of the first is higher: 0.000314 average fractional NGS count over selection days 2 and 3 (reads of this peptide / all reads for the bait, averaged over … for the first, 0.000114 average fractional NGS count over selection days 2 and 3 (reads of this peptide / all reads for the bait, averaged over … for the second.

First: chain 1 M1G
Second: chain 1 M1P
The screen value of the first is higher: 0.000229 average fractional NGS count over selection days 2 and 3 (reads of this peptide / all reads for the bait, averaged over … for the first, 0.000146 average fractional NGS count over selection days 2 and 3 (reads of this peptide / all reads for the bait, averaged over … for the second.

First: chain 1 M1D
Second: chain 1 E15I
The screen value of the first is lower: 9.92e-05 average fractional NGS count over selection days 2 and 3 (reads of this peptide / all reads for the bait, averaged over … for the first, 0.0148 average fractional NGS count over selection days 2 and 3 (reads of this peptide / all reads for the bait, averaged over … for the second.

First: chain 1 E15N
Second: chain 1 E15M
The screen value of the first is higher: 0.000504 average fractional NGS count over selection days 2 and 3 (reads of this peptide / all reads for the bait, averaged over … for the first, 8.82e-05 average fractional NGS count over selection days 2 and 3 (reads of this peptide / all reads for the bait, averaged over … for the second.

Compared with chain 1 E15R, chain 1 E15G is higher in screen value: 0.000127 average fractional NGS count over selection days 2 and 3 (reads of this peptide / all reads for the bait, averaged over … for the first, 0.00623 average fractional NGS count over selection days 2 and 3 (reads of this peptide / all reads for the bait, averaged over … for the second.

Going from chain 1 E15F to chain 1 E15Y, the screen value rises from 0.000557 average fractional NGS count over selection days 2 and 3 (reads of this peptide / all reads for the bait, averaged over … to 0.0114 average fractional NGS count over selection days 2 and 3 (reads of this peptide / all reads for the bait, averaged over ….

Compared with chain 1 E15V, chain 1 E15S is lower in screen value: 0.0659 average fractional NGS count over selection days 2 and 3 (reads of this peptide / all reads for the bait, averaged over … for the first, 0.0548 average fractional NGS count over selection days 2 and 3 (reads of this peptide / all reads for the bait, averaged over … for the second.

Going from chain 1 E15Q to chain 1 E15P, the screen value falls from 0.000842 average fractional NGS count over selection days 2 and 3 (reads of this peptide / all reads for the bait, averaged over … to 0.000251 average fractional NGS count over selection days 2 and 3 (reads of this peptide / all reads for the bait, averaged over ….

First: chain 1 E15T
Second: chain 1 E15H
The screen value of the first is higher: 0.119 average fractional NGS count over selection days 2 and 3 (reads of this peptide / all reads for the bait, averaged over … for the first, 0.00272 average fractional NGS count over selection days 2 and 3 (reads of this peptide / all reads for the bait, averaged over … for the second.

Going from chain 1 E15W to chain 1 E15K, the screen value falls from 0.00827 average fractional NGS count over selection days 2 and 3 (reads of this peptide / all reads for the bait, averaged over … to 0.000258 average fractional NGS count over selection days 2 and 3 (reads of this peptide / all reads for the bait, averaged over ….

Compared with chain 1 E15D, chain 1 E15L is higher in screen value: 0.000913 average fractional NGS count over selection days 2 and 3 (reads of this peptide / all reads for the bait, averaged over … for the first, 0.0492 average fractional NGS count over selection days 2 and 3 (reads of this peptide / all reads for the bait, averaged over … for the second.

First: chain 1 I2Y
Second: chain 1 I2P
The screen value of the first is higher: 0.00134 average fractional NGS count over selection days 2 and 3 (reads of this peptide / all reads for the bait, averaged over … for the first, 0.000427 average fractional NGS count over selection days 2 and 3 (reads of this peptide / all reads for the bait, averaged over … for the second.

First: chain 1 I2S
Second: chain 1 I2A
The screen value of the first is lower: 0.000713 average fractional NGS count over selection days 2 and 3 (reads of this peptide / all reads for the bait, averaged over … for the first, 0.00266 average fractional NGS count over selection days 2 and 3 (reads of this peptide / all reads for the bait, averaged over … for the second.

Compared with chain 1 I2F, chain 1 I2W is higher in screen value: 0.000676 average fractional NGS count over selection days 2 and 3 (reads of this peptide / all reads for the bait, averaged over … for the first, 0.00792 average fractional NGS count over selection days 2 and 3 (reads of this peptide / all reads for the bait, averaged over … for the second.

Compared with chain 1 I2N, chain 1 I2H is lower in screen value: 0.00111 average fractional NGS count over selection days 2 and 3 (reads of this peptide / all reads for the bait, averaged over … for the first, 0.000551 average fractional NGS count over selection days 2 and 3 (reads of this peptide / all reads for the bait, averaged over … for the second.

Going from chain 1 I2Q to chain 1 A11N, the screen value rises from 0.000479 average fractional NGS count over selection days 2 and 3 (reads of this peptide / all reads for the bait, averaged over … to 0.000651 average fractional NGS count over selection days 2 and 3 (reads of this peptide / all reads for the bait, averaged over ….

Compared with chain 1 A11G, chain 1 A11M is higher in screen value: 0.000249 average fractional NGS count over selection days 2 and 3 (reads of this peptide / all reads for the bait, averaged over … for the first, 0.00708 average fractional NGS count over selection days 2 and 3 (reads of this peptide / all reads for the bait, averaged over … for the second.

First: chain 1 A11F
Second: chain 1 A11Q
The screen value of the first is lower: 0.000474 average fractional NGS count over selection days 2 and 3 (reads of this peptide / all reads for the bait, averaged over … for the first, 0.000778 average fractional NGS count over selection days 2 and 3 (reads of this peptide / all reads for the bait, averaged over … for the second.

Going from chain 1 A11H to chain 1 A11L, the screen value rises from 0.000274 average fractional NGS count over selection days 2 and 3 (reads of this peptide / all reads for the bait, averaged over … to 0.000741 average fractional NGS count over selection days 2 and 3 (reads of this peptide / all reads for the bait, averaged over ….

Variants of: B2
Assay: as above

Compared with chain 1 T1A, chain 1 T1S is lower in screen value: 0.00514 average fractional NGS count over selection days 2 and 3 (reads of this peptide / all reads for the bait, averaged over … for the first, 0.00105 average fractional NGS count over selection days 2 and 3 (reads of this peptide / all reads for the bait, averaged over … for the second.

Going from chain 1 M14A to chain 1 M14V, the screen value rises from 0.00114 average fractional NGS count over selection days 2 and 3 (reads of this peptide / all reads for the bait, averaged over … to 0.00137 average fractional NGS count over selection days 2 and 3 (reads of this peptide / all reads for the bait, averaged over ….

Compared with chain 1 M14L, chain 1 E5Q is higher in screen value: 0.000799 average fractional NGS count over selection days 2 and 3 (reads of this peptide / all reads for the bait, averaged over … for the first, 0.00197 average fractional NGS count over selection days 2 and 3 (reads of this peptide / all reads for the bait, averaged over … for the second.

Going from chain 1 H9Q to chain 1 H12K, the screen value falls from 0.00185 average fractional NGS count over selection days 2 and 3 (reads of this peptide / all reads for the bait, averaged over … to 0.00015 average fractional NGS count over selection days 2 and 3 (reads of this peptide / all reads for the bait, averaged over ….

First: chain 1 H12I
Second: chain 1 D11N
The screen value of the first is lower: 0.000167 average fractional NGS count over selection days 2 and 3 (reads of this peptide / all reads for the bait, averaged over … for the first, 0.00248 average fractional NGS count over selection days 2 and 3 (reads of this peptide / all reads for the bait, averaged over … for the second.

First: chain 1 D11K
Second: chain 1 A4N
The screen value of the first is lower: 0.000112 average fractional NGS count over selection days 2 and 3 (reads of this peptide / all reads for the bait, averaged over … for the first, 0.000396 average fractional NGS count over selection days 2 and 3 (reads of this peptide / all reads for the bait, averaged over … for the second.

Compared with chain 1 H2P, chain 1 H2L is higher in screen value: 0.00101 average fractional NGS count over selection days 2 and 3 (reads of this peptide / all reads for the bait, averaged over … for the first, 0.00441 average fractional NGS count over selection days 2 and 3 (reads of this peptide / all reads for the bait, averaged over … for the second.

chain 1 H2K was tested, and the screen value was 0.000959 average fractional NGS count over selection days 2 and 3 (reads of this peptide / all reads for the bait, averaged over ….
